Luciferase activity (antibody and EC50 data for three substances are collected here from US20210363266A1.

Assay [1] concerns the target human 4-1BB on the reporter cell strain HEK293F-h4-1BB-NFkB (human) (UniProt Q07011). Description: cell-based or functional assay.
The target of assay [2] is human 4-1BB His protein (Sinobiological, Beijing #10041-H08H) (human) (UniProt Q07011). Description: capture ELISA, antibody captured, biotinylated 4-1BB-his.
Sequence of human 4-1BB His protein (Sinobiological, Beijing #10041-H08H) (human) (Q07011 24-186 limits assumed): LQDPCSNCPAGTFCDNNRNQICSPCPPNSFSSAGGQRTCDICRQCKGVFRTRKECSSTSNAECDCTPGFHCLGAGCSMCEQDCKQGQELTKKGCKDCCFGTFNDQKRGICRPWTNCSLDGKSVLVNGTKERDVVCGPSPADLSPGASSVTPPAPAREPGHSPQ

Sequence of human 4-1BB on the reporter cell strain HEK293F-h4-1BB-NFkB (human) (Q07011 24-255): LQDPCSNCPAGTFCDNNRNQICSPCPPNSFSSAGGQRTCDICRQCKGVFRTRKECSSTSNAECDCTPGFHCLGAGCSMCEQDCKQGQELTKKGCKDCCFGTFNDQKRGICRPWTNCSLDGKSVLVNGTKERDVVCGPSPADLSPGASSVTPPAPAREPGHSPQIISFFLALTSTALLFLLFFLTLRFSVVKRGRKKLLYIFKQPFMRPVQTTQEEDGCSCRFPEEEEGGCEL
Sequence of Urelumab (BMS) (antibody) (VH): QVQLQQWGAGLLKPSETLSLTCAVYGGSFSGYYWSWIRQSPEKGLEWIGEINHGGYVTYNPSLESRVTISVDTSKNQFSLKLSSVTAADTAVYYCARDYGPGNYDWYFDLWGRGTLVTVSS
Sequence of Urelumab (BMS) (antibody) (VL): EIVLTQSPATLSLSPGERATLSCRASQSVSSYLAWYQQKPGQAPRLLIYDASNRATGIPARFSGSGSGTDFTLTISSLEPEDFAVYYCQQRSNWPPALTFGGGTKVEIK

For the substance MOR7480 (Pfizer) (antibody), the luciferase activity (antibody at 10 nM) in assay [1] turned out to be 1000.

The term EC50 denotes the concentration needed to bring the measured effect to its halfway point. Higher therefore signals weaker potency. Regarding Urelumab (BMS) (antibody), in assay [1], the luciferase activity (antibody at 10 nM) was 2190. This substance also came in with an EC50 in assay [2] of 0.192 µg/mL.

Consider hIgG (antibody), for which the luciferase activity (antibody at 10 nM) in assay [1] was determined as 290.
